Measurements from paper doi:10.1101/2025.06.13.659133, “Anti-activin treatment increases T cell infiltration in breast and pancreatic tumours and promotes survival in a SMAD4-null mouse pancreatic cancer model” (bioRxiv, 2025).

T1: Noggin (UniProt Q13253 28-232)
T1 construct: Noggin, bought from Peprotech; source: bought: Peprotech
T1 sequence (looked up): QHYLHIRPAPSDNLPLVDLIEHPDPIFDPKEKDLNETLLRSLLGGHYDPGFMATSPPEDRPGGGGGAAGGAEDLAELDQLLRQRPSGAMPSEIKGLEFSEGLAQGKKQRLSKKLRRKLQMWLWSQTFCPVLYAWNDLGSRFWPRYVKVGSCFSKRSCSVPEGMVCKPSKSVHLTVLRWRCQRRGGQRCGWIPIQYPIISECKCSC

T2: ACVR2B-ECD (used in SPR) (UniProt Q13705 19-137)
T2 construct: also called ACVR2B extracellular domain (ECD)
T2 sequence (looked up): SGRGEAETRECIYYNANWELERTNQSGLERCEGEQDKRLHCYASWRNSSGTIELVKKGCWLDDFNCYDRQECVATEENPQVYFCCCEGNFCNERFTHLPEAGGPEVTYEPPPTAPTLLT

B1: BMP2 (ligand, UniProt P12643 283-396, looked up)
chain: QAKHKQRKRLKSSCKRHPLYVDFSDVGWNDWIVAPPGYHAFYCHGECPFPLADHLNSTNHAIVQTLVNSVNSKIPKACCVPTELSAISMLYLDENEKVVLKNYQDMVVEGCGCR
notes: BMP2, bought from Peprotech; source: bought: Peprotech
B2: activin A (immobilised on the SPR chip) (ligand, UniProt P08476 311-426, looked up)
chain: GLECDGKVNICCKKQFFVSFKDIGWNDWIIAPSGYHANYCEGECPSHIAGTSGSSLSFHSTVINHYRMRGHSPFANLKSCCVPTKLRPMSMLYYDDGQNIIKKDIQNMIVEECGCS

What was measured:
Noggin = target: T1, Noggin; experiment: SPR; activin A, TGF-β3 or BMP2 immobilised on a CM4 chip (EDC-NHS, up to 400 RU); antibodies or control binders flowed over; BIAcore T200; 10 mM CHES, 150 mM NaCl, 3 mM EDTA, 0.01% P20, pH 8.0; 1:1 kinetic model; settings: both partners purified
ACVR2B-ECD (used in SPR) = target: T2, ACVR2B-ECD (used in SPR); experiment: as above; settings: both partners purified

Binder	Kd (Noggin)	Kd (ACVR2B-ECD (used in SPR))
B1	1.26 nM	–
B2	–	114 nM
